Measurements reported in the array DNA melting data of Ke et al..

Tests used:
[1] = melting temperature; UV melt of duplexes
[2] = melting temperature; melt of duplexes; conditions: sodium 0.0675 M; strand 1 µM

Substance “GTAGAATTCTTTTCCTTCTAGATCG+CGATCTAGAAGGAAAAGAATTCTAC (((((((((((((((((((((((((+)))))))))))))))))))))))))” has a Tm ([1]; sodium 0.1 M, strand 1 µM) of 62 °C.
In the case of “GCGAGCGACAGGTTACTTGGCTGAT+ATCAGCCAAGTAACCTGTCGCTCGC (((((((((((((((((((((((((+)))))))))))))))))))))))))”, the Tm ([1]; sodium 0.07 M, strand 2 µM) is reported as 67 °C, the Tm ([1]; sodium 0.12 M, strand 2 µM) is reported as 70.8 °C and the Tm ([1]; sodium 0.22 M, strand 2 µM) is reported as 74.7 °C. For the same substance, the Tm ([1]; sodium 0.62 M, strand 2 µM) was 78.6 °C and the Tm ([1]; sodium 1.02 M, strand 2 µM) was 80.1 °C.
Work on “AATATCTCTCATGCGCCAAGCTACA+TGTAGCTTGGCGCATGAGAGATATT (((((((((((((((((((((((((+)))))))))))))))))))))))))” yielded a Tm ([1]; sodium 0.07 M, strand 2 µM) of 62.1 °C, a Tm ([1]; sodium 0.12 M, strand 2 µM) of 65.7 °C and a Tm ([1]; sodium 0.22 M, strand 2 µM) of 70.3 °C. It also gave a Tm ([1]; sodium 0.62 M, strand 2 µM) of 75.1 °C and a Tm ([1]; sodium 1.02 M, strand 2 µM) of 76.5 °C.
“GCCAACTCCGTCGCCGTTCGTGCGC+GCGCACGAACGGCGACGGAGTTGGC (((((((((((((((((((((((((+)))))))))))))))))))))))))” gave a Tm ([1]; sodium 0.07 M, strand 2 µM) of 73.5 °C, a Tm ([1]; sodium 0.12 M, strand 2 µM) of 76.5 °C and a Tm ([1]; sodium 0.22 M, strand 2 µM) of 80.6 °C. For the same substance, the Tm ([1]; sodium 0.62 M, strand 2 µM) was 83.2 °C and the Tm ([1]; sodium 1.02 M, strand 2 µM) was 84.6 °C.
“GTTCTATACTCTTGAAGTTGATTAC+GTAATCAACTTCAAGAGTATAGAAC (((((((((((((((((((((((((+)))))))))))))))))))))))))” showed a Tm ([1]; sodium 0.07 M, strand 2 µM) of 52.7 °C, a Tm ([1]; sodium 0.12 M, strand 2 µM) of 56.1 °C and a Tm ([1]; sodium 0.22 M, strand 2 µM) of 60.6 °C. It also gave a Tm ([1]; sodium 0.62 M, strand 2 µM) of 66.1 °C and a Tm ([1]; sodium 1.02 M, strand 2 µM) of 67.7 °C.
Work on “AATATATATAGAGTGCGCGCAA+TTGCGCGCACTCTATATATATT ((((((((((((((((((((((+))))))))))))))))))))))” yielded a Tm ([1]; sodium 0.12 M, strand 3.3 µM) of 64.1 °C.
Work on “AGCAAGTCGAGCAGGGCCTACGTTT+AAACGTAGGCCCTGCTCGACTTGCT (((((((((((((((((((((((((+)))))))))))))))))))))))))” yielded a Tm ([1]; sodium 0.07 M, strand 2 µM) of 68.3 °C, a Tm ([1]; sodium 0.12 M, strand 2 µM) of 72.6 °C and a Tm ([1]; sodium 0.22 M, strand 2 µM) of 76.3 °C. For the same substance, the Tm ([1]; sodium 0.62 M, strand 2 µM) was 80 °C and the Tm ([1]; sodium 1.02 M, strand 2 µM) was 81.5 °C.
In the case of “AACGCGCGTAGAGTAATTATAA+TTATAATTACTCTACGCGCGTT ((((((((((((((((((((((+))))))))))))))))))))))”, the Tm ([1]; sodium 0.12 M, strand 6 µM) is reported as 65 °C.
In the case of “AACGCGCGTGAATTCTGGCCGCAA+TTGCGGCCAGAATTCACGCGCGTT ((((((((((((((((((((((((+))))))))))))))))))))))))”, the Tm ([1]; sodium 0.12 M, strand 6 µM) is reported as 75.8 °C.
In the case of “CAGCAGCAGCAGCAGCAGCAGCAGCAGCAG+CTGCTGCTGCTGCTGCTGCTGCTGCTGCTG ((((((((((((((((((((((((((((((+))))))))))))))))))))))))))))))”, the Tm ([1]; sodium 0.15 M, strand 0.0001 M) is reported as 83 °C.
Work on “GCCGAGGTCCATGTCGTACGC+GCGTACGACATGGACCTCGGC (((((((((((((((((((((+)))))))))))))))))))))” yielded a Tm ([1]; sodium 0.1 M, strand 4 µM) of 69.5 °C.
With “ACTGATTAGGATCCATATGTCA+TGACATATGGATCCTAATCAGT ((((((((((((((((((((((+))))))))))))))))))))))” the Tm ([1]; sodium 0.12 M, strand 5 µM) was 58.3 °C.
In the case of “AGTCTGGTCTGGATCTGAGAACTTCAGGCT+AGCCTGAAGTTCTCAGATCCAGACCAGACT ((((((((((((((((((((((((((((((+))))))))))))))))))))))))))))))”, the Tm ([1]; sodium 0.07 M, strand 2 µM) is reported as 66.3 °C, the Tm ([1]; sodium 0.12 M, strand 2 µM) is reported as 70.4 °C and the Tm ([1]; sodium 0.22 M, strand 2 µM) is reported as 74.5 °C. The Tm ([1]; sodium 0.62 M, strand 2 µM) was 78.8 °C and the Tm ([1]; sodium 1.02 M, strand 2 µM) was 80.6 °C.
“CGACGTGCCTAATGTGCTG+CAGCACATAGGGCACGTCG (((((((((..((((((((+))))))))..)))))))))” gave a Tm [2] of 55.4 °C.
For “CGACGTGCAAAATGTGCTG+CAGCACATACAGCACGTCG ((((((((...((((((((+))))))))...))))))))”, the Tm [2] was 49.7 °C.
In the case of “CGACGTGCAACATGTGCTG+CAGCACATCTAGCACGTCG ((((((((.(.((((((((+)))))))).).))))))))”, the Tm [2] is reported as 48.2 °C.
In the case of “CGACGTGCTTCATGTGCTG+CAGCACATACCGCACGTCG ((((((((...((((((((+))))))))...))))))))”, the Tm [2] is reported as 47.3 °C.
“CGACGTGCGGTATGTGCTG+CAGCACATGGTGCACGTCG ((((((((...((((((((+))))))))...))))))))” showed a Tm [2] of 51.5 °C.
In the case of “CGACGTGCAGAATGTGCTG+CAGCACATCATGCACGTCG (((((((((..((((((((+))))))))..)))))))))”, the Tm [2] is reported as 53 °C.
Substance “CGACGTGCTTAATGTGCTG+CAGCACATGCTGCACGTCG ((((((((...((((((((+))))))))...))))))))” has a Tm [2] of 49.1 °C.
“CGACGTGCGGAATGTGCTG+CAGCACATAAAGCACGTCG ((((((((...((((((((+))))))))...))))))))” gave a Tm [2] of 55.5 °C.
Work on “CGACGTGCAGGATGTGCTG+CAGCACATCGTGCACGTCG (((((((((.(((((((((+))))))))).)))))))))” yielded a Tm [2] of 58.3 °C.
With “CGACGTGCTCAATGTGCTG+CAGCACATGCGGCACGTCG ((((((((...((((((((+))))))))...))))))))” the Tm [2] was 49.4 °C.
“CGACGTGCATTATGTGCTG+CAGCACATGCCGCACGTCG ((((((((...((((((((+))))))))...))))))))” gave a Tm [2] of 47.5 °C.
For “CGACGTGCATAATGTGCTG+CAGCACATGTTGCACGTCG (((((((((..((((((((+))))))))..)))))))))”, the Tm [2] was 53.7 °C.
With “CGACGTGCAGCATGTGCTG+CAGCACATGTAGCACGTCG ((((((((..(((((((((+)))))))))..))))))))” the Tm [2] was 54.4 °C.
Substance “CGACGTGCAGGATGTGCTG+CAGCACATGTAGCACGTCG ((((((((...((((((((+))))))))...))))))))” has a Tm [2] of 50.4 °C.
In the case of “CGACGTGCCAGATGTGCTG+CAGCACATCCTGCACGTCG ((((((((..(((((((((+)))))))))..))))))))”, the Tm [2] is reported as 54.3 °C.
For “CGACGTGCGCCATGTGCTG+CAGCACATAACGCACGTCG (((((((((..((((((((+))))))))..)))))))))”, the Tm [2] was 52.4 °C.
With “CGACGTGCCATATGTGCTG+CAGCACATTAAGCACGTCG ((((((((...((((((((+))))))))...))))))))” the Tm [2] was 50.1 °C.
“CGACGTGCATCATGTGCTG+CAGCACATTGAGCACGTCG ((((((((...((((((((+))))))))...))))))))” gave a Tm [2] of 50.2 °C.
